Assay [1] deals with T1, Raf-1/14-3-3 binding to the IL-2Rb chain (Homo sapiens, UniProt P14784).
T1 construct: constructs encoding full-length or deletional mutants of the human IL-2Rβ chain; expressed in transfected cells; host or cells: COS cells, pRcCMV-IL-2Rβ, with or without lck or fyn
T1 sequence (P14784 27-551): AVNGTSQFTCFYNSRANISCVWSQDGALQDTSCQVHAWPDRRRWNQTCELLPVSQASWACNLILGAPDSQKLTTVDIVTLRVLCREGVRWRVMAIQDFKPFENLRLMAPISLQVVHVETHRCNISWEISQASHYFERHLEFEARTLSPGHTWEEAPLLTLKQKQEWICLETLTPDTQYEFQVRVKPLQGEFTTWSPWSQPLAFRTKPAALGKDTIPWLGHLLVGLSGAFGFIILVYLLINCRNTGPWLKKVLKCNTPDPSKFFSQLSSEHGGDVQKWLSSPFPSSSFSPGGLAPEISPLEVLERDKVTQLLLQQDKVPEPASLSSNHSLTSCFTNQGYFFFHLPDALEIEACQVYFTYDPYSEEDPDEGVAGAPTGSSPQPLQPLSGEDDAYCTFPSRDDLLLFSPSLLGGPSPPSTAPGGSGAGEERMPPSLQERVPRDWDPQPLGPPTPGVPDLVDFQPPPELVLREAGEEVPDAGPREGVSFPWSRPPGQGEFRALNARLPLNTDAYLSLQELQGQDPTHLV
As to the kind of experiment: COS cells co-transfected with IL-2Rβ chain and lck or fyn, immunoprecipitates probed for Raf-1 and 14-3-3. Format: cell-based. As to conditions: co-transfection of COS cells, FIG. 10a. The source says: In order to perform this examination, COS cells were transfected with IL-2Rβ chain alone, or co-transfected with lck or fyn, then […] with anti-IL-2Rβ chain antibody. The immunoprecipitates were then probed for the presence of Raf-1 and 14-3-3 proteins by immunoblotting (all procedures as detailed hereinabove).

The target of assay [2] is T2, IL-2Rβ chain/Raf-1/14-3-3 complexes (Homo sapiens, UniProt P14784).
T2 construct: construction of plasmid FLAG-HMK-IL-2Rβ chain cytoplasmic domain wild type (FLAG-HMK-IL-2Rβ-WT); made in house; host or cells: bacterial lysates (BL-21 pLysS for the IL-2Rβ fusion, M15 for Raf-1)
T2 sequence (P14784 266-551 limits assumed): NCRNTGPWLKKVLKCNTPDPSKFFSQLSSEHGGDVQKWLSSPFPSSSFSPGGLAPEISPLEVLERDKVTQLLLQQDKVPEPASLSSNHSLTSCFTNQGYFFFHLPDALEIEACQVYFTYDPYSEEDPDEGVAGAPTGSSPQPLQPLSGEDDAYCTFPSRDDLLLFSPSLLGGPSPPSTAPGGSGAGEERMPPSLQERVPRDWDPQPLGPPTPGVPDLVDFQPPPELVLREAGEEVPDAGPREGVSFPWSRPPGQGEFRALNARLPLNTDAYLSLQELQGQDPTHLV
As to the kind of experiment: Pre-formed IL-2Rβ chain/(His)6 Raf-1/bacterial 14-3-3 complexes exposed to catalytically active p56lck in vitro. In kind it is biochemical. To be noted: enzymatically active kinase, FIG. 10b. On the procedure: The results of this examination are shown in FIG. 10a which is a reproduction of the above immunoblot. […] In addition, a study of the dissociation of pre-formed IL-2Rβ chain/Raf-1/14-3-3 complexes by enzymatically active p56^lck was also carried out. Pre-formed IL-2Rβ chain/(His)6 Raf-1/bacterial 14-3-3 complexes were prepared (see above in respect of FIGS. a-c), exposed to catalytically active p56^lck (Upstate Biotechnology), washed and eluted with FLAG peptide. Eluates were separated on SDS-PAGE and tested for the presence of Raf-1 proteins. The results of this study are shown in FIG. 10b which is a reproduction of an SDS-PAGE gel in which is depicted the Raf-1 bands. […] Since there is no indication that p56^lck interacts with Ras-like sequence of the IL-2Rβ chain, it seems that binding of Raf-1 and p56^lck to distinct subdomains of the same A-region, co-localize kinase and its substrate for fast enzymatic reaction occurring during IL-2R activation.

For assay [3], the target named is T3, Raf-1 serine/threonine kinase (Homo sapiens, UniProt P04049).
T3 construct: endogenous in cells; host or cells: human T-cell lysate (Raf-1); BL-21 pLysS bacteria (IL-2Rβ fusion)
Briefly: Serine/threonine kinase assay on T-cell proteins retained by FLAG-HMK-IL-2Rβ chain, with or without genistein, Histone H1 substrate. In kind it is biochemical. As to conditions: genistein 10 μg/ml; T-cell proteins bound to IL-2Rβ chain. The procedure:
The kinase reaction was initiated by the addition of 1 μCi of […] and 25 μM ATP. After 30 min at 24° C., the reaction was stopped by addition of reducing SDS-PAGE sample buffer and boiling.
(ii) Kinase reaction performed in the presence of Histone-H-1. There is an increased, genistein (tyrosine kinase inhibitor)-independent phosphorylation of Histone-H-1 in T-cell lysates retained on affinity beads coated with FLAG-HMK-IL-2Rβ chain. Control affinity beads coated with proteins isolated from bacteria transformed with vector alone and exposed to T-cell lysates retain only background level of serine/threonine kinase activity. These experiments were repeated a number of times. The results of a representative experiment are shown in FIG. 5 which is a reproduction of an autoradiogram of the products of the kinase reaction performed, in the presence of Histone H-1, on anti-FLAG beads coated with the IL-2Rβ chain construct (WT) and exposed to T-cell lysates in the presence of genistein (lane 3), or in the absence of genistein (lane 2) and then subjected to SDS-PAGE and autoradiography. The control (lane 1) was carried out with the FLAG-HMK vector alone (no insert).

Another assay concerns Raf-1 / IL-2Rβ chain. As to conditions: IL-2 stimulation; cited from earlier work.

The values below come from patent publication US20010016194A1 (priority 1999, published 2001).

“Also recorded” adds a separate entry of the source.

T3 sequence (P04049 whole entry, the tested form may be a part): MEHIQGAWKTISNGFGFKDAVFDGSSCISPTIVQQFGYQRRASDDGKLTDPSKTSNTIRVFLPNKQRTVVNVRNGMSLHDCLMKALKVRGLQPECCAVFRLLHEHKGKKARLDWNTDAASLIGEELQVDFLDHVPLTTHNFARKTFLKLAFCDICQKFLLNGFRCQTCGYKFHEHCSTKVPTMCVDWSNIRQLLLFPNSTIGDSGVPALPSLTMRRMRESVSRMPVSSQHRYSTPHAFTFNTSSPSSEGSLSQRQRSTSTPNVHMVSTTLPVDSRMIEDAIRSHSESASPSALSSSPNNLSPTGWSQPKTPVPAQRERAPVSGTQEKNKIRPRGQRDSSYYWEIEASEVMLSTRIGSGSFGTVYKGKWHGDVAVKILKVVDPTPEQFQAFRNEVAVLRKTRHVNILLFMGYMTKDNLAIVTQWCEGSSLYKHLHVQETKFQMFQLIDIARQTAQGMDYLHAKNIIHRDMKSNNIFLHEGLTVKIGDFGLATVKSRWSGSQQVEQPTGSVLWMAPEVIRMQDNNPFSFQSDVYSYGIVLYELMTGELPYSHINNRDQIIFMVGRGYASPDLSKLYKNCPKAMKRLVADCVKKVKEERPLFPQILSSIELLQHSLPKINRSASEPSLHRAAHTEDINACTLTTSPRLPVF

For the molecule “p56^lck: src-family protein tyrosine kinase; catalytically active enzyme from Upstate Biotechnology or co-transfected in COS cells”, in assay [1], the “effect on Raf-1/14-3-3 binding to the IL-2Rb chain” value was “abrogation of Raf-1/14-3-3 binding”. Besides, the “dissociation of pre-formed IL-2Rβ chain/Raf-1/14-3-3 complexes” value in assay [2] is “dissociation”. As for `O=c1c(-c2ccc(O)cc2)coc2cc(O)cc(O)c12` [genistein], the “effect of genistein on serine/threonine kinase activity (Histone H1 phosphorylation)” value in assay [3] is “not inhibited; also recorded: independent”. Moreover, the “dissociation of enzymatically active Raf-1 from the IL-2Rβ chain” value in the assay on Raf-1 / IL-2Rβ chain is listed as “completely abolished”. Consider “p59^fyn: another src-like kinase, co-transfected in COS cells”, for which the “effect on Raf-1/14-3-3 binding to the IL-2Rb chain” value in assay [1] is listed as “did not cause this dissociation”.
